Source: patent publication US20120014876A1 (ACADEMISCH ZIEKENHUIS MAASTRICHT, published 2012)
Bridges are numbered along the chain shown (N, C = ends). Where no end group is shown, it is not given here. rhodamine = not defined here; alkyl = not defined here

How the values were obtained:
rat frizzled-2 receptor [1] = target: T1, rat frizzled-2 receptor (rat, UniProt Q08464 29-570); test: cell-based or functional assay
rat frizzled-2 receptor [2] = target: T1, rat frizzled-2 receptor; test: cell-based or functional assay; remark: listed apart in the source
rat frizzled-1 receptor [3] = target: T2, rat frizzled-1 receptor (rat, UniProt Q08463 69-641); test: cell-based or functional assay
T2 sequence (Q08463 69-641): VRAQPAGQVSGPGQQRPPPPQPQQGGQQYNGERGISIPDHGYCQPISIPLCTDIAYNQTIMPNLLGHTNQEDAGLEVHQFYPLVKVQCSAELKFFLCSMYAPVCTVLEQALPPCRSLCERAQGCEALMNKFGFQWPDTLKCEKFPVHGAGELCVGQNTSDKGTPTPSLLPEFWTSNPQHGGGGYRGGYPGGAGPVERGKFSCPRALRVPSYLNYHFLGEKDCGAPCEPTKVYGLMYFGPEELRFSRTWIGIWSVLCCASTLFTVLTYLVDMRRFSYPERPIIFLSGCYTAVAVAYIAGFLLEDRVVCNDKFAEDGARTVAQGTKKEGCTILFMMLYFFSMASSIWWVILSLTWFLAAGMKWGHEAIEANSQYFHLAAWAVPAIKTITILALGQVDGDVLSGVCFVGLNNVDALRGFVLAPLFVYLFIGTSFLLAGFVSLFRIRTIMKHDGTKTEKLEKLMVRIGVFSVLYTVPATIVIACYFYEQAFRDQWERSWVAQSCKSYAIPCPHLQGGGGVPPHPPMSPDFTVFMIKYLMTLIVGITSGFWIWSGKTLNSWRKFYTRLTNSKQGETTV

rat frizzled-2 receptor [4] = target: T1, rat frizzled-2 receptor; test: inferred by the filing from inhibition curves of Wnt3a-induced luciferase activity in transfected HEK293-superTOPflash cells
Procedure: To determine the inhibitory constant of UM206-8, HEK293-superTOPflash cells were transfected with either rFzd-1 or -2 and incubated with Wnt3a (10⁻⁹M) in the presence of increasing concentrations of either of the peptides (FIG. 15). For UM206, a biphasic inhibition curve was observed that was best fitted with a two-binding-state model.

rat frizzled-1 receptor [5] = target: T2, rat frizzled-1 receptor; test: cell-based or functional assay; remark: listed apart in the source
mouse Fzd-2 = target: T3, mouse Fzd-2 (mouse, UniProt Q9JIP6 29-570); test: rhodamine-labeled UM206 on kidney and small intestine sections
T3 construct: whole, on cells; also called mouse frizzled-2
T3 sequence (Q9JIP6 29-570): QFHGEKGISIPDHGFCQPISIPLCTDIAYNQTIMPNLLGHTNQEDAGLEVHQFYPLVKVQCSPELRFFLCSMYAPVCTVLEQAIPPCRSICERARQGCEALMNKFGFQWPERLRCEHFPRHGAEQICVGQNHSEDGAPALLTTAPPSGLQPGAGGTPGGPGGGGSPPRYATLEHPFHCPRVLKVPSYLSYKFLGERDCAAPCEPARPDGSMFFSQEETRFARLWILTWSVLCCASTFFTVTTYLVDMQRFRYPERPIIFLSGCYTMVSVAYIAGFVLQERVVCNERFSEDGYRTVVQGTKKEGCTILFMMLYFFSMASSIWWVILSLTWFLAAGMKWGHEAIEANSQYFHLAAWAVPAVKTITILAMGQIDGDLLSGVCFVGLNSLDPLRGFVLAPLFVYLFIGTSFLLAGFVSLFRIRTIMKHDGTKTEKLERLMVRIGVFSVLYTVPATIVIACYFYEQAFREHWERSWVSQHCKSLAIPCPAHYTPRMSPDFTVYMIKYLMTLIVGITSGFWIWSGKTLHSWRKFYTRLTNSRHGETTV

mouse Fzd-1 = target: T4, mouse Fzd-1 (mouse, UniProt O70421 69-642); test: fluorescence imaging of small intestine and kidney sections
T4 construct: whole, on cells; also called mouse frizzled-1
T4 sequence (O70421 69-642): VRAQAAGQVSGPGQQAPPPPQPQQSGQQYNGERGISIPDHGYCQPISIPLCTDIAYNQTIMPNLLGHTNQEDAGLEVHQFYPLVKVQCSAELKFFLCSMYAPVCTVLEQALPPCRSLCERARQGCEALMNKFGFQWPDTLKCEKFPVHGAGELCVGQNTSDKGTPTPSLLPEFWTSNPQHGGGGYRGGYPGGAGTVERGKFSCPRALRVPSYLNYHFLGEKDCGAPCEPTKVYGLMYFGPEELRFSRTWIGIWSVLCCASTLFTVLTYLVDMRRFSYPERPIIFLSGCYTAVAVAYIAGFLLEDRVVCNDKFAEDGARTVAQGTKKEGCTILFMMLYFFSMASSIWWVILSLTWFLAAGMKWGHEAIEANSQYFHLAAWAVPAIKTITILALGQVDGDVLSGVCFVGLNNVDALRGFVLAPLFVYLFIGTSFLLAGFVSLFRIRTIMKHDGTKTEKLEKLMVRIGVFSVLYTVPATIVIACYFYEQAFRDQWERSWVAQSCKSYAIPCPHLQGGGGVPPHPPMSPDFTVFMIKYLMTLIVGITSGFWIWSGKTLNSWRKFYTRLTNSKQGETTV

T1 sequence (Q08464 29-570): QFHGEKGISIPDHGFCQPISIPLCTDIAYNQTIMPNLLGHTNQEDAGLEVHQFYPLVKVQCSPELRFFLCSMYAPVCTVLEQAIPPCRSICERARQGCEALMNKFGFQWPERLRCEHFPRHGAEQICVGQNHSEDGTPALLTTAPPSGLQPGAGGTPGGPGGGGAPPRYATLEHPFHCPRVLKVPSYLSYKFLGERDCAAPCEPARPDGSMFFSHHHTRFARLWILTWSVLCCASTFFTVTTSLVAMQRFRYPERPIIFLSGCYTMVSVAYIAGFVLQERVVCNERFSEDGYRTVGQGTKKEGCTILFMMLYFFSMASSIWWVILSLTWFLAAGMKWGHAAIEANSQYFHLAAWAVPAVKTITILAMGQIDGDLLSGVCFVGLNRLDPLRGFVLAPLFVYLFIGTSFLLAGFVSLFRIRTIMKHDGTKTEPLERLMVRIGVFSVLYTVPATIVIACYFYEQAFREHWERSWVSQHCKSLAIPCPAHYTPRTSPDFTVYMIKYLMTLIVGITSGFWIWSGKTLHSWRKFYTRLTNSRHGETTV

Binder	% of inhibition of Wnt3a-induced luciferase activity, peptide 1.10^-9 M (rat frizzled-2 receptor [2]) [%]	% of inhibition of Wnt3a-induced luciferase activity, peptide 1.10^-9 M (rat frizzled-1 receptor [3]) [%]	further results
Wnt3a (ligand) SYPIWWSLAVGPQYSSLGSQPILCASIPGLVPKQLRFCRNYVEIMPSVAEGIKIGIQECQHQFRGRRWNCTTVHDSLAIFGPVLDKATRESAFVHAIASAGVAFAVTRSCAEGTAAICGCSSRHQGSPGKGWKWGGCSEDIEFGGMVSREFADARENRPDARSAMNRHNNEAGRQAIASHMHLKCKCHGLSGSCEVKTCWWSQPDFRAIGDFLKDKYDSASEMVVEKHRESRGWVETLRPRYTYFKVPTERDLVYYEASPNFCEPNPETGSFGTRDRTCNVSSHGIDGCDLLCCGRGHNARAERRREKCRCVFHWCCYVSCQECTRVYDVHTCK			fold increase of luciferase activity (TOPflash reporter, HEK cells) (rat frizzled-2 receptor [1]): 12 fold
Ac-CNKTSEGMDGCEL-NH2 (cysteine pairing not given here, Linear form, no disulfide bridge between the two cysteines; also called antagonist UM206) [Peptide UM206]	75.1	72.2	fold higher affinity than to rFzd-1 (rat frizzled-2 receptor [4]): ~100 fold; IC50, inhibition of Wnt3a (10^-9 M)-induced luciferase activity, two-binding-state fit, high affinity site (rat frizzled-2 receptor [1]): 0.0169 nM; IC50, inhibition of Wnt3a-induced luciferase activity (rat frizzled-2 receptor [1]): 0.1 nM; IC50, inhibition of Wnt3a (10^-9 M)-induced luciferase activity, two-binding-state fit, major binding site (rat frizzled-1 receptor [5]): 2.1 nM; IC50, inhibition of Wnt3a-induced luciferase activity (rat frizzled-1 receptor [5]): 1 nM
Ac-GIKECQYQFRHRRWNCSTVD-NH2 (cysteine pairing not given here) [Peptide UM207]			IC50, inhibition of Wnt3a (10^-9 M)-induced luciferase activity, single binding site fit (rat frizzled-2 receptor [1]): 15.2 nM; IC50, inhibition of Wnt3a (10^-9 M)-induced luciferase activity, single binding site fit (rat frizzled-1 receptor [5]): 40 nM
Ac-CNKTSEGMDGCEL-NH2 (disulfide 1-11) [Peptide UM206(S-S)]			EC50, luciferase activity (amount of agonist that yields 50% of maximum activity) (rat frizzled-2 receptor [1]): 20 nM; EC50, luciferase activity (amount of agonist that yields 50% of maximum activity) (rat frizzled-1 receptor [5]): 10 nM
ANKTSEGMDGCEL [UM206 (1 C = A)]	82.6	70.8	
CAKTSEGMDGCEL-NH2 (cysteine pairing not given here) [UM206 (2 N = A)]	79.5	68	
CNATSEGMDGCEL-NH2 (cysteine pairing not given here) [UM206 (3 K = A)]	84.9	70.8	
CNKASEGMDGCEL-NH2 (cysteine pairing not given here) [UM206 (4 T = A)]	59.4	28.1	
CNKTAEGMDGCEL-NH2 (cysteine pairing not given here) [UM206 (5 S = A)]	87.3	74.3	
CNKTSAGMDGCEL-NH2 (cysteine pairing not given here) [UM206 (6 E = A)]	84.7	70.8	
CNKTSEAMDGCEL-NH2 (cysteine pairing not given here) [UM206 (7 G = A)]	63.1	52.6	
CNKTSEGADGCEL-NH2 (cysteine pairing not given here) [UM206 (8 M = A)]	85	67.6	
CNKTSEGMAGCEL-NH2 (cysteine pairing not given here) [UM206 (9 D = A)]	60.5	40.5	
CNKTSEGMDACEL-NH2 (cysteine pairing not given here) [UM206 (10 G = A)]	83.3	69.9	
CNKTSEGMDGAEL [UM206 (11 C = A)]	84.9	67.2	
CNKTSEGMDGCAL-NH2 (cysteine pairing not given here) [UM206 (12 E = A)]	85.5	65.9	
CNKTSEGMDGCEA-NH2 (cysteine pairing not given here) [UM206 (13 L = A)]	86.5	65.9	
ANKTSEGMDGAEL [UM206 (C = A)]	8.39	0	
C(alkyl)NKTSEGMDGC(alkyl)EL-NH2 (not fully specified (N-terminus); reading uncertain; also: alkyl group not given here) [UM206 (C = C-alkyl)]	12.4	1	
SNKTSEGMDGSEL [UM206 (C = S)]	17	0	
CNKTSEGMDGC-NH2 (cysteine pairing not given here) [UM206 - (deletion of the C-terminal Glutamic acid and Leucine)]	61.2	18	
CNKTSEGMDGCAA-NH2 (cysteine pairing not given here) [UM206 (12-13 EL = AA)]	74.3	66.8	
CNKASEAMAGCEL-NH2 (cysteine pairing not given here) [UM206 (4 T = A, 7 G = A, 9 D = A)]	17.5	11.2	
CNVSSHGIDGCDL-NH2 (cysteine pairing not given here) [peptide CNVSSHGIDGCDL (SEQ ID NO:18)]	62.4	45.3	
Ac-CNK(rhodamine)TSEGMDGCEL-NH2 (cysteine pairing not given here; reading uncertain, UM206 with rhodamine on Lys3; end groups as UM206 (Ac-, -NH2) not restated; also called UM206-rhodamine; UM206-Rhodamine) [rhodamine-labeled UM206]			binding result (mouse Fzd-2): binds; binding result (mouse Fzd-1): binds
